# According to patent US20150105322:
# Columns and labels:
# [1] = target: E. coli expressed human annexin A2, P07355
# [2] = target: non-N-glycosylated human annexin A2-6×His (N62A) group #1 expressed in Pichia pastoris
# [3] = target: glycosylated human annexin A2-6×His expressed in Pichia pastoris
# [4] = target: non-N-glycosylated human annexin A2-6×His (N62A) group #2 expressed in Pichia pastoris
# Chain of non-N-glycosylated human annexin A2-6×His (N62A) group #2 expressed in Pichia pastoris (chain, as listed by the source N62A): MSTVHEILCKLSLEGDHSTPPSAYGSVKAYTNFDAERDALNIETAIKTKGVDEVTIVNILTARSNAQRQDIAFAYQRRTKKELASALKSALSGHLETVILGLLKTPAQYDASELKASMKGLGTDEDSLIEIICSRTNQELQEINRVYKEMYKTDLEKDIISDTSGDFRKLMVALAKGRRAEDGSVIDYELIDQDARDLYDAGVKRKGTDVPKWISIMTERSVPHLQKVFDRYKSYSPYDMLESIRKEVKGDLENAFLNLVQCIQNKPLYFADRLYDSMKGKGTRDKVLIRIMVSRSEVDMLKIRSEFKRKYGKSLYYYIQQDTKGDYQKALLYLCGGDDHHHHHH
# Chain of non-N-glycosylated human annexin A2-6×His (N62A) group #1 expressed in Pichia pastoris (chain, as listed by the source N62A): as above
# Chain of E. coli expressed human annexin A2, P07355 (P07355 whole entry): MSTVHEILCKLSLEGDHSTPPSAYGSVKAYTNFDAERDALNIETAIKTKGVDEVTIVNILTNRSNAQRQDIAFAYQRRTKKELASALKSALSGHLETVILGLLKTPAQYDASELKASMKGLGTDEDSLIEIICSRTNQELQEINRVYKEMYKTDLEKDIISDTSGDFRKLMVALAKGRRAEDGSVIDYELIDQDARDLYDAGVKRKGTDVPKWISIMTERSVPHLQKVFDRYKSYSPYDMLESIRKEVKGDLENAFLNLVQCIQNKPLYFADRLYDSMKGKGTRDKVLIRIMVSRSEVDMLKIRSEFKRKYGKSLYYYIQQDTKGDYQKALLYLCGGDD
# Chain of glycosylated human annexin A2-6×His expressed in Pichia pastoris (chain, as listed by the source): as the sequence (chain, as listed by the source N62A) above, with A62N counted along it
protein,measurement,setting,value
tissue plasminogen activator (protein) SYQVICRDEKTQMIYQQHQSWLRPVLRSNRVEYCWCNSGRAQCHSVPVKSCSEPRCFNGGTCQQALYFSDFVCQCPEGFAGKCCEIDTRATCYEDQGISYRGTWSTAESGAECTNWNSSALAQKPYSGRRPDAIRLGLGNHNYCRNPDRDSKPWCYVFKAGKYSSEFCSTPACSEGNSDCYFGNGSAYRGTHSLTESGASCLPWNSMILIGKVYTAQNPSAQALGLGKHNYCRNPDGDAKPWCHVLKNRRLTWEYCDVPSCSTCGLRQYSQPQFRIKGGLFADIASHPWQAAIFAKHRRSPGERFLCGGILISSCWILSAAHCFQERFPPHHLTVILGRTYRVVPGEEEQKFEVEKYIVHKEFDDDTYDNDIALLQLKSDSSRCAQESSVVRTVCLPPADLQLPDWTECELSGYGKHEALSPFYSERLKEAHVRLYPSSRCTSQHLLNRTVTDNMLCAGDTRSGGPQANLHDACQGDSGGPLVCLNDGRMTLVGIISWGLGCGQKDVPGVYTKVTNYLDWIRDNMRP,"tPA-mediated plasmin-generation (fluorogenic plasmin substrate D-Val-Leu-Lys-AMC, with N-terminal lysine plasminogen)",[1],"comparable to the E. coli expressed human annexin A2 (positive control, labeled as t1+bac-rA2)"
same,"tPA-mediated plasmin-generation (fluorogenic plasmin substrate D-Val-Leu-Lys-AMC, with N-terminal lysine plasminogen)",[2],restored the enhancer function completely
same,"tPA-mediated plasmin-generation (fluorogenic plasmin substrate D-Val-Leu-Lys-AMC, with N-terminal lysine plasminogen)",[3],did not significantly enhance tPA-mediated plasmin-generation
same,"tPA-mediated plasmin-generation (fluorogenic plasmin substrate D-Val-Leu-Lys-AMC, with N-terminal lysine plasminogen)",[4],The enhancer function was partially (about 50%) restored in group #2
